Results reported in paper PMC5027281 (Nature Communications, 2016).
Substitutions are numbered along the chain they refer to.

B1: 3I14-mHgL IgG1 (mature heavy chain, germline light chain) (antibody, V domains shown)
VH: QVQLLESGGGVVQPGRSLRLSCAASGFTFSNYGMHWVRQAPGKGLEWVAIISFDGSKKYYANSVKGRSTISRDNSKNTLSLQMNSLGPEDTALYYCAKLPSPYYFDSRFVWVAASAFHFWGQGILVTVSS
VL: not shown
B2: 3I14 VLD94N variant IgG1 (antibody, V domains shown)
VH: B1 VH
VL: NFMLTQPPSASGTPGQRVTISCSGSSSNIGGNTVHWFQQLPGTAPKLLIYTNSLRPSGVPDRFSGSKSGTSASLAISGLQSEDEADYYCAAWDNSLNGQVFGGGTKLTVL
B3: 3I14-GL IgG1 (VH and VL germline versions) (antibody, V domains shown)
VH: QVQLVESGGGVVQPGRSLRLSCAASGFTFSSYGMHWVRQAPGKGLEWVAVISYDGSNKYYADSVKGRFTISRDNSKNTLYLQMNSLRAEDTAVYYCAKLPSPYYYDSRFVWVAASYFDYWGQGTLVTVSS
VL: not shown
B4: 3I14-gHmL IgG1 (germline heavy chain, mature light chain) (antibody, V domains shown)
VH: B3 VH
VL: B2 VL with N94D

Tests used:
[1] = molecular target: T1, Recombinant full-length HA of A/Perth/16/09 (H3-PE09) (influenza A virus A/Perth/16/09); test: BLI; details: both partners purified
[2] = molecular target: T1, Recombinant full-length HA of …; test: BLI; details: both partners purified; remark: listed apart in the source

Row | Binder | Kd [1] | koff [1] | kon [1] | Kd [2] | koff [2] | kon [2]
1 | B1 | 0.658 nM | 0.000126 s⁻¹ | 192000 M⁻¹ s⁻¹ | – | – | –
2 | B2 | – | – | – | 0.308 nM | 5.44e-05 s⁻¹ | 177000 M⁻¹ s⁻¹
3 | B3 | 4.02 nM | 0.000556 s⁻¹ | 139000 M⁻¹ s⁻¹ | – | – | –
4 | B4 | 0.733 nM | 0.000125 s⁻¹ | 171000 M⁻¹ s⁻¹ | – | – | –
